Assay results reported in patent US20130156764A1, “NEUTRALIZATION OF FLT3 LIGAND AS A LEUKEMIA THERAPY” (The Johns Hopkins University, priority 2010, published 2013).

Experiments:
[1] = test system: MV411 cells; assay: Survival (MTT) of MV411 cells with FL; assay type: cell-based, human; details: MV411, serum-free, 4 days
Procedure: 2×10^4 cells in 100 μl serum-free medium were plated into triplicate wells of 96-well plates. Survival was assessed by MTT assay (Roche, Indianapolis, Ind.) and viable cell number counting by trypan blue (GIBCO, Rockville, Md.) exclusion according to the manufacturer's instructions.
The MV411 cell line is a human leukemia-derived cell line expressing a FLT3/ITD mutation and has lost the wild-type allele. […] MV411 cells express endogenous FL that might diminish the degree of the effect of exogenous FL on FLT3/ITD mutant receptor. To evaluate the effect of FL on the survival of MV411 cells, MV411 cells were cultured in serum-free medium in the presence and absence of FL for 4 days.

[2] = test system: STAT5 and AKT phosphorylation; assay: FL stimulation, downstream signaling immunoblot in TF1/ITD and TF1/TKD cells; assay type: cell-based
Procedure: (§1) TF1 and BaF3 cells were transfected with pCINeo constructs containing either FLT3/ITD or FLT3/TKD mutation by electroporation (Bio-Rad, Hercules, Calif.). Stable transfectants were then selected by limiting dilution in 96-well plates with 1 mg/mL G418 (Invitrogen, Carlsbad, Calif.).
The possibility of further activation of FLT3 mutant receptors by exogenous FL was also tested in cell lines in which FL autocrine, paracrine, or intracrine stimulation of FLT3 receptor might exist. […] TF1 cells expressing FLT3 mutant receptors were starved for 16 hours in serum-free medium and washed once with PBS to deplete soluble FL (either produced by the cells or contained in the serum). These cells were then stimulated with exogenous FL for 15 minutes. More than 2-fold enhancement of FLT3 phosphorylation was detected in both TF1/ITD and TF1/TKD cell lines (FIG. 12A). […] To assess the functional effect of exogenous FL, TF1/ITD and TF1/TKD cells were cultured in serum-free medium in the absence and presence of FL for 48 hours. Apoptosis was assessed by Annexin V and 7AAD staining followed by FACS analysis. […] There was no change of cell cycle status in response to FL in these cells (data not shown).

[3] = test system: FLT3/ITD in primary AML blasts; assay: FL stimulation, FLT3 phosphorylation in primary AML blasts with homozygous FLT3/ITD; assay type: cell-based, human; details: 100 ng/mL FL
Procedure: To study whether further activation of mutant FLT3 receptors in response to FL also occurs in primary cells, experiments were carried on primary AML blasts expressing homozygous FLT3/ITD mutations (i.e., no detectable wild type FLT3 by PCR). The blasts were stimulated with 100 ng/mL FL. […] The survival of AML blasts was assessed by culturing them in complete medium with and without FL for 4 days.

[4] = test system: AKT and MAPK phosphorylation; assay: FL stimulation, downstream signaling immunoblot in BaF3/ITD and BaF3/TKD cells; assay type: cell-based
Procedure: as §1
(§2) BaF3 is another cell line lacking expression of endogenous FLT3. BaF3 cells transfected with mutant forms of FLT3 were starved in serum-free medium for 16 hours and washed with PBS before FL stimulation. […] Changes of other FLT3 downstream signals were not observed. An MTT survival assay was performed in BaF3/ITD and BaF3/TKD cells cultured in serum-free medium in the presence and absence of FL for 4 days. […] The effect was also confirmed by counting viable cell numbers by trypan blue exclusion (FIG. 13C, P<0.05). These findings indicate that FL stimulation prolongs the survival of cells expressing FLT3 mutants.

[5] = test system: primary AML blast samples harboring a FLT3/ITD mutation; assay: MTT assay in primary AML blast samples with FLT3/ITD mutation with FL; assay type: cell-based, human; details: addition of exogenous FL, all 3 samples
Text: Leukemia cell specimens were provided by the Sidney Kimmel Cancer Center at Johns Hopkins Tumor and Cell Procurement Bank. All patients gave informed consent according to the Declaration of Helsinki. The specimens were obtained by Ficoll purifying mononuclear cells from the peripheral blood patients with FLT3/ITD AML. The mononuclear cells were aliquoted and stored frozen in liquid nitrogen in bovine serum with 10% DMSO for repeated use. Prior to each use, aliquots of these blasts were thawed rapidly into warm culture medium, incubated for 12 hours, and then recentrifuged over Ficoll to eliminate cells dying from the freeze-thaw process. Using this method, blasts were obtained that maintained satisfactory viability (as determined by Trypan blue exclusion) and responsiveness to cytotoxic agents in culture over 72 hours.
Cytotoxicity was assessed using an MTT (Dimethyl-thiazol diphenyl tetrazolium bromide) assay. In selected cases, an Annexin-V binding apoptosis assay was also used to confirm that the cytotoxic effect observed (or lack thereof) was associated with an equivalent degree of apoptosis. MTT (Roche, Indianapolis, Ind.) and Annexin V (Pharmingen, San Diego, Calif.) assays were performed as described previously.
In three primary samples from AML patients with FLT3/ITD mutations (FIG. 8), a similar pattern of response to FL and FLT3 inhibition was observed.

[6] = test system: STAT5 and AKT phosphorylation; assay: FL stimulation, downstream signaling in MV411 cells; assay type: cell-based, human
[7] = test system: FLT3/ITD and FLT3/TKD in BaF3 cells; assay: FL stimulation, FLT3 phosphorylation in BaF3/ITD and BaF3/TKD cells; assay type: cell-based
Procedure: as §1, §2

B1: FL: Recombinant human FL (fms-related tyrosine kinase ligand) purchased from PeproTech; SEQ ID NO: 1 (protein, listed as Homo sapiens)
chain: MTVLAPAWSPTTYLLLLLLLSSGLSGTQDCSFQHSPISSDFAVKIRELSDYLLQDYPVTVASNLQDEELCGGLWRLVLAQRWMERLKTVAGSKMQGLLERVNTEIHFVTKCAFQPPPSCLRFVQTNISRLLQETSEQLVALKPWITRQNFSRCLELQCQPDSSTLPPPWSPRPLEATAPTAPQPPLLLLLLLPVGLLLLAAAWCLHWQRTRRRTPRPGEQVPPVPSPQDLLLVEH
In the case of B1, the survival [1] is reported as “prolonged survival”, the “AKT phosphorylation and AKT protein expression” value ([2]; TF1/ITD and TF1/TKD after FL stimulation) is reported as “Slightly increased” and the STAT5 phosphorylation increase ([2]; both TF1/ITD and TF1/TKD) is reported as 1.8 fold. For the same molecule, the FLT3 phosphorylation [3] was “enhanced FLT3 phosphorylation”, the “increase of phosphorylation of AKT” value ([4]; BaF3/ITD) was 1.3 fold and the MAPK phosphorylation ([4]; BaF3/ITD and BaF3/TKD) was “increase of MAPK phosphorylation”. The “increase of phosphorylation of AKT” value ([4]; BaF3/TKD) was 2.2 fold, the “metabolic activity of the sample in culture medium” value [5] was “increased” and the “phosphorylation of FLT3 downstream signaling, including STAT5 and AKT” value [6] was “Slightly enhanced phosphorylation”. For the same molecule, the FLT3 phosphorylation [7] was “increased FLT3 phosphorylation”.
